These results are taken from patent US5750365, “Isolated nucleic acid encoding a newt acidic fibroblast growth factor (AFGF)” (The Ohio State University Research Foundation, dated 1998).

The target in one test is recombinant human aFGF (human, UniProt P05230, 125I-labeled). Description: Scatchard plot of 125I-aFGF binding to KPTr2-2 cells (CHO-K1 expressing newt KGFR).
The target of another test is bovine brain aFGF (bovine, UniProt P03968, 125I-labeled). The experiment in a line: chemical crosslinking (DSS) on CHO-K1 cells over-expressing newt KGFR, SDS-PAGE. Here is the method:
(§1) CHO cells transfected with pBJ5 vector (lane 1) or with newt KGFR expression vector (lanes 2–4) were crosslinked with ^125I-aFGF using 0.3 mM disuccinimidyl suberate (DSS). Excess amounts (500-fold) of aFGF (lane 3) or KGF (lane 4) were used to compete with ^125I-aFGF. Crosslinked products were analyzed on a 7.5% SDS-polyacrylamide gel.
(§2) To characterize the newt FGFR cDNA functionally, the newt KGFR were expressed in CHO-K1 cells. The mammalian expression vector, pBJ5, which contains a chimeric promoter derived from HTLV-I and SV40, was used to express the newt KGFR and FGFR2 cDNA. […] The crosslinked product can be successfully competed off with a 500-fold molar excess of cold aFGF or human recombinant KGF as shown in FIG. 11. The crosslinked product is absent in KPTr1-8, the CHO cells that were transfected with the pBJ5 vector alone. The crosslinked product thus appears to be specific. Similarly, a cell line over-expressing the human KGFR (T-1063-29-2 from S. A. Aaronson, NIH) was able to produce a somewhat smaller crosslinked product than the newt KGFR. Antibodies (both monoclonal and polyclonal) directed against a peptide from the carboxyl terminus of the newt FGFR2 are generated.

Another test concerns the target T1, human recombinant KGF (human, UniProt P21781).
T1 sequence: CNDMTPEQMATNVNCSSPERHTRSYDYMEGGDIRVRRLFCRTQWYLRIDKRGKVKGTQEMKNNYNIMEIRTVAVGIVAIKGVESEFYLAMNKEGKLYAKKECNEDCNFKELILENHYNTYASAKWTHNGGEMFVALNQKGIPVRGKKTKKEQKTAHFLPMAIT
The experiment in a line: competition of 125I-aFGF crosslinking on KPTr2-2 cells; competitor in 500-fold molar excess. The method, then: as §1, §2

B1: newt KGFR (KGFR isoform, IIIb, of newt FGFR2; two Ig-like loop variant), expressed on CHO-K1 cells (KPTr2-2) (receptor)
chain: RPSYNIAEDTTLEPEDANSSGDDEDDNDGSEDFTNDNNHMRAPYWTNTEKLEKKLHAVPAANTVKFRCPAGGNPTPSMRWLKNGKEFKQEHRIGGFKVRSQHFSLIMESVVPSDEGNYTCIMENEYGSINHTYHLDVVERSPHRPILQAGLPANTTTKVGGDAEFVCKVYSDAQPHIQWIRHFELNGSKIGPDGHPYLKVLKRSGINSSNAEVLTLHNVTEADRGQYTCKVSNYIGEANQSAWLTVLPASEKDEERELDSSSEYTEIAIYCVGGFLITCMIGTIMVCHMKGRGKKSDFSSPPAVHKLSKSLPLRRQVTVSADSSSSMNSNTPLVRITTRLSSNNDTHLLAGVSEYELPEDPKWEYPREKLTLGKPLGEGCFGQVVMAEAVGIDKDRPKDAATVAVKMLKDDATEKDLSDLVSEMEMMKMIGKHKNIINLLGACTQDGPLYVIVEYASKGNLREYLRTRRPPGMEYSFDINRIPEEQMTFKDLVSCTYQLARGMEYLASQKCIHRDLAARNVLVTETNVMKIADFGLARDINNIDYYKKTTNGRLPVKWMAPEALFDRVYTHQSDVWSFGVLMWEIFTLGGSPYPGIPVEELFKLLKEGHRMDKPGNCTNELYTMMTDCWRAVPSQRPTFKQLVEDLDRILTQTTNEEYLDLNNPLEQYSPSYPDTRSSCSSGDDSVFSPDAMPYDPCLPKSQHTNGTIKT
On to B1, for which the Kd (as a rule, a measure of binding affinity in units of concentration) in the test with recombinant human aFGF is 1.3 nM. Further, the binding result with bovine brain aFGF and in the test with human recombinant KGF was “binds” in each case.
